Experimental data published in article PMC4300236.

Molecular target: rabbit skeletal muscle type 1 ryanodine receptor (RyR1) (rabbit (Oryctolagus cuniculus)) (UniProt P11716)
Assay: cryo-EM structure

rabbit skeletal muscle type 1 ryanodine receptor (RyR1), P11716 1-5037, sequence (P11716 whole entry): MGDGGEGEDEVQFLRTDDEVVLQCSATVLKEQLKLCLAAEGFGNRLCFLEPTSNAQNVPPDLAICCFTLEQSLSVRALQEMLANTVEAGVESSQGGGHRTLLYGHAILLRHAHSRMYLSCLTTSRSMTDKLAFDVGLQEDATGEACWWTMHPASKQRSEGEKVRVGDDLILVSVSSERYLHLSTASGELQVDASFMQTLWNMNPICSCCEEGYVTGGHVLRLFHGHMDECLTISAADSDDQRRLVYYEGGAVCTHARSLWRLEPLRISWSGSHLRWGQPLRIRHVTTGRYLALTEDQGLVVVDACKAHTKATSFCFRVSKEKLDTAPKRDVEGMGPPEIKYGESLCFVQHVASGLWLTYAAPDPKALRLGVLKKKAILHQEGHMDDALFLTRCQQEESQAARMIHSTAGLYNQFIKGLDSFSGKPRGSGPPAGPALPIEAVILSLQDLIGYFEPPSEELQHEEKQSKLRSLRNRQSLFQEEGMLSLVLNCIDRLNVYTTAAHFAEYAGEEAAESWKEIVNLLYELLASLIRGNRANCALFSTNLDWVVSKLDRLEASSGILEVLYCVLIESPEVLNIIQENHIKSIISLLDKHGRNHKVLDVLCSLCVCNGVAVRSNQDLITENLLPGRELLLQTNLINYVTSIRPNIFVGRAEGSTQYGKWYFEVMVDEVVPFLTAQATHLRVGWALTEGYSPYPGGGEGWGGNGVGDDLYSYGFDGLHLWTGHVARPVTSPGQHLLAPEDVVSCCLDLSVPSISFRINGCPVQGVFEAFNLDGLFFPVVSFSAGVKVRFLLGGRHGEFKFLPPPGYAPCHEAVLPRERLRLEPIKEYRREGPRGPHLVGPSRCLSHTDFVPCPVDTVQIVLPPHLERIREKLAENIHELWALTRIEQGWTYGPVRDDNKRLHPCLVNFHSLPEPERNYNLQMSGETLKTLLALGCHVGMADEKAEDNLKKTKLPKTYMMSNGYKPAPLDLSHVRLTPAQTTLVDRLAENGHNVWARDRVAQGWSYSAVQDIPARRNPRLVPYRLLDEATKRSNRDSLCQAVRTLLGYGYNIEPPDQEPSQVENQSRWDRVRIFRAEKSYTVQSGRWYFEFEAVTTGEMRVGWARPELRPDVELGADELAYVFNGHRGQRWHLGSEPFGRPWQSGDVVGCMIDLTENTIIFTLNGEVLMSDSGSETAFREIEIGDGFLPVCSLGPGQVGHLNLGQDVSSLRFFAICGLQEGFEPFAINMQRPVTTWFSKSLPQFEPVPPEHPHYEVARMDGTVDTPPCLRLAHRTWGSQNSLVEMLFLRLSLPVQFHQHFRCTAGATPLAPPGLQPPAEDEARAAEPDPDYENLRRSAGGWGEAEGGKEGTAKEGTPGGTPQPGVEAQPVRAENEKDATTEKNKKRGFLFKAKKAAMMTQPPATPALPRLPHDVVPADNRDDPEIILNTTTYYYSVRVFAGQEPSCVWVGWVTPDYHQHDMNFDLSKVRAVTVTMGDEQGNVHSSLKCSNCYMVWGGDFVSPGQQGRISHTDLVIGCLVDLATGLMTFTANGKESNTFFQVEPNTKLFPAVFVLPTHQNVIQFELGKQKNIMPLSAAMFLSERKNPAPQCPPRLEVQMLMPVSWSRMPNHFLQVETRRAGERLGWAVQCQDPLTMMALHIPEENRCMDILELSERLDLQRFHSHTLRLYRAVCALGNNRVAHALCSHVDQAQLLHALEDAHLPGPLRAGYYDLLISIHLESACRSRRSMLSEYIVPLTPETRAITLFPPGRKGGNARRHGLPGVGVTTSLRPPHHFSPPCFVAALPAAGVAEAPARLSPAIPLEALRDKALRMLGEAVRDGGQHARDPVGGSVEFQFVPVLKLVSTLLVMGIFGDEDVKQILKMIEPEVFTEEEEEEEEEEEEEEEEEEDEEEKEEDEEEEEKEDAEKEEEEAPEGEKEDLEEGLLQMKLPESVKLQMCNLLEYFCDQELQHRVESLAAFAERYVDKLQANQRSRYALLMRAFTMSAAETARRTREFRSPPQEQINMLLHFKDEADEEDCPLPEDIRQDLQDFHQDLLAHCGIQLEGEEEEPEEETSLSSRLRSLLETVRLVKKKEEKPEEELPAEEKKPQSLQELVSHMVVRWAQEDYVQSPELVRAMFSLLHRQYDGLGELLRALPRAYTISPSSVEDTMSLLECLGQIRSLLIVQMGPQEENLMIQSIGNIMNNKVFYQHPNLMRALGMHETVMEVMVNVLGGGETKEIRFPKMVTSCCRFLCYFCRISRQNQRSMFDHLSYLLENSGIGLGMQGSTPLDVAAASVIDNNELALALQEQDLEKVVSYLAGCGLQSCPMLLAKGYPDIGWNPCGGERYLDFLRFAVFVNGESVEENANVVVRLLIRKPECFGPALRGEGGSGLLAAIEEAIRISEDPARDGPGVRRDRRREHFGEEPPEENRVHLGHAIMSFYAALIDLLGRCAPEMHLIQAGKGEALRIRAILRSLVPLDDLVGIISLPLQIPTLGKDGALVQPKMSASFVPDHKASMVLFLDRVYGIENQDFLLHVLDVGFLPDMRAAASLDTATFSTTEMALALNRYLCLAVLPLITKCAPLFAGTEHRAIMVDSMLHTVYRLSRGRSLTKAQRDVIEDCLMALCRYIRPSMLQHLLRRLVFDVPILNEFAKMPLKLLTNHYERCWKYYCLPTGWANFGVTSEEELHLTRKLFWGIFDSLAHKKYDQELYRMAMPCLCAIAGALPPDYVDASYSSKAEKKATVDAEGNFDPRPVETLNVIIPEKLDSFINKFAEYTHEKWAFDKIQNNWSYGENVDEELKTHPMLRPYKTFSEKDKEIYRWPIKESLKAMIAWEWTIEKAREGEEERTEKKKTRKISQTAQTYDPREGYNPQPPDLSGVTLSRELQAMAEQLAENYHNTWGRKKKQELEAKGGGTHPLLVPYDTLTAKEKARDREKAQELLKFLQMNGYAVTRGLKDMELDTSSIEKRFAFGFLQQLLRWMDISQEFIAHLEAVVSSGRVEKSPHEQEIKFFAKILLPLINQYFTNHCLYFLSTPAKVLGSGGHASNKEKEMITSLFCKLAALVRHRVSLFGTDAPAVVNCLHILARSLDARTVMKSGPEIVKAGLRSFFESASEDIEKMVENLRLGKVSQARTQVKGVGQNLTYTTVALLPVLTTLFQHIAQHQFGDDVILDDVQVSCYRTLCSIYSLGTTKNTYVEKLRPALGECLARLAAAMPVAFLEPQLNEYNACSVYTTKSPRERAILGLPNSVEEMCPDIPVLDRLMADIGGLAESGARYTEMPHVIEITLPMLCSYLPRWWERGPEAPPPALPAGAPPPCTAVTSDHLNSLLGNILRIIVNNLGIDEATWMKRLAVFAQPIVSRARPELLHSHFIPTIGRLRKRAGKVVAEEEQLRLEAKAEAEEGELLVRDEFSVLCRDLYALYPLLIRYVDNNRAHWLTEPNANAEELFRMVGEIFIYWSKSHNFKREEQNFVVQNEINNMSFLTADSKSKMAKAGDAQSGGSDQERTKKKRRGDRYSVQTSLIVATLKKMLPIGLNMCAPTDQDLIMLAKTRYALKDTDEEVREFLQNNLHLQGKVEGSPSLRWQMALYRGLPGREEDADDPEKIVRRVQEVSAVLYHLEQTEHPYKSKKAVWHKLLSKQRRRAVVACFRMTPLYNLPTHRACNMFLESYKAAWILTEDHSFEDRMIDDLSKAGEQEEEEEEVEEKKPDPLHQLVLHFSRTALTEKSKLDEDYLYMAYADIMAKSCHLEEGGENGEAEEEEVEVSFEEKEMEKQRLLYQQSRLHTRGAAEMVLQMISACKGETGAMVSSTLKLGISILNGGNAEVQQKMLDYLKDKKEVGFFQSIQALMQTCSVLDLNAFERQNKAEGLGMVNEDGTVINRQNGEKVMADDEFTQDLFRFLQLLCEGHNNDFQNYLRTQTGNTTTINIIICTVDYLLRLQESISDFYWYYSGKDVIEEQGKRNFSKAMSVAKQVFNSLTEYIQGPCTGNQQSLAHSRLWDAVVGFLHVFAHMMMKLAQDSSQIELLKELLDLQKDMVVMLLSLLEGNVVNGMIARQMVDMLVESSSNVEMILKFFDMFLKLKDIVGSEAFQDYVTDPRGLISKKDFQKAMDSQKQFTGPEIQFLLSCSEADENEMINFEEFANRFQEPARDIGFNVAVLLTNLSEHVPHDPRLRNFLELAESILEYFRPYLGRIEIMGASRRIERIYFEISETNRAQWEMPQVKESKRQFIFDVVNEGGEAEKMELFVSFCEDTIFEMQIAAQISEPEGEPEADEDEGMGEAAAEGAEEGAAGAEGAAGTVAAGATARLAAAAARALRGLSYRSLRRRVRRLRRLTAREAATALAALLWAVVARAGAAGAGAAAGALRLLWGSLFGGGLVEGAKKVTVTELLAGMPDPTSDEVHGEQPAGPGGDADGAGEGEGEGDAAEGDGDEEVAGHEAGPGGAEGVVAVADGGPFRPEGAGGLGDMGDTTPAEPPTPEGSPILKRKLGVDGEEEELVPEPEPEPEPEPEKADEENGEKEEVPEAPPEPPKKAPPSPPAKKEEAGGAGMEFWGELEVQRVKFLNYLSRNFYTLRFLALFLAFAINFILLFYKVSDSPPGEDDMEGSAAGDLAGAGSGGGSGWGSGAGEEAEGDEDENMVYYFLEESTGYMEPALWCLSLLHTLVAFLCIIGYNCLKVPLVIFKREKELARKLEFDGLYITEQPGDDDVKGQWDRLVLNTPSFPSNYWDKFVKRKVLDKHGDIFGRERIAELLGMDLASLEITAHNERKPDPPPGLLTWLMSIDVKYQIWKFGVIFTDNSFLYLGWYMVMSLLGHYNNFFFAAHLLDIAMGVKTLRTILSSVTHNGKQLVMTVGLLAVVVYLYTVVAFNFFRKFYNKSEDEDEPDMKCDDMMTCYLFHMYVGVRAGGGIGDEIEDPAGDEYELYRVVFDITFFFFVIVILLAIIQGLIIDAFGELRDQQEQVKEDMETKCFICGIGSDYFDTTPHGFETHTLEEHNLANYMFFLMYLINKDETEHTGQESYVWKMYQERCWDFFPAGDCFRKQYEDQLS

**Q.** Which stoichiometry N does the source give for “rabbit skeletal muscle type 1 ryanodine receptor (RyR1), P11716 1-5037” here?
**A.** 4
